Test results from paper PMC9515155.

What was measured:
[1] = target: human IgE (Calbiochem) (human); assay: SPR; conditions: Fc fusion
[2] = target: IgE_(TRAP) (human) (UniProt P12319); assay: SPR; ProteOn XPR36, GLC chip; 500 RU of IgE_(TRAP) immobilised in acetate buffer pH 4.0 (850 RU of omalizumab at pH 5.5); human IgE flowed over; PBS with 0.005% Tween-20, 30 μL/min

human IgE (Calbiochem) (natural protein), sequence (P01854 whole entry): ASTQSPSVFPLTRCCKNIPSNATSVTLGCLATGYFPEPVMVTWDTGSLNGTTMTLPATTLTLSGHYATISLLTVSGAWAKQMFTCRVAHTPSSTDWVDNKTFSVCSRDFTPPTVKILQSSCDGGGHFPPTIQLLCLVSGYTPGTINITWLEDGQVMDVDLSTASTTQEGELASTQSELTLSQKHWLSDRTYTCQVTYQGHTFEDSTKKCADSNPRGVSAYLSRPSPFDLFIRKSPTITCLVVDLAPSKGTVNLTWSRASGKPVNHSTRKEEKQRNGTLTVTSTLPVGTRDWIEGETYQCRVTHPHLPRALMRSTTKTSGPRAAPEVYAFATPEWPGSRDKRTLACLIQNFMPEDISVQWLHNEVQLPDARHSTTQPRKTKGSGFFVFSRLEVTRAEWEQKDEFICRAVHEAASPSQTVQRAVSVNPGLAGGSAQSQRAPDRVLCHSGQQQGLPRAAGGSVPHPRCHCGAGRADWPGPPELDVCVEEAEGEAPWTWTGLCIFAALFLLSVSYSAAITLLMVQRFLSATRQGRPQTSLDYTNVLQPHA
human IgE (Calbiochem) (human), sequence (P01854 whole entry, the tested form may be a part): as the sequence (P01854 whole entry) above

Kd [1] [nM] | koff [1] [s⁻¹] | fold higher binding affinity than omalizumab [2] [fold] | fold lower association rate constant (Ka) than omalizumab [2] [fold] | fold lower dissociation rate constant (Kd) than omalizumab [2] [fold] | Substance
0.215 | 5.69e-05 |  |  |  | IgE_(TRAP) (from UniProt P12319 25-205; P01880 133-170; P01861 121-327)
 |  | 69 | 1.5 | 105 | human IgE (Calbiochem) (natural protein)
